The results in this text go back to the DeepSol protein solubility set.

The nature of this data set: soluble on expression in E. coli; label from the status in PepcDB or PDB records.
As for “MGHHHHHHSHMMYAQSKGIYYVQLEDDIVAKPNYLSTMKNFALQQPSEDWMILEFSQLGFIGKMFKSLDLSLIVEFILMFYRDKPIDWLLDHILWVKVCNPEKDAKHCDRQKANLRIRFKPSLFQHVGTHSSLAGKIQKLKDKDFGKQALRKEHVNPPAEVSTSLKTYQHFTLEKAYLREDFFWAFTPAAGDFIRFRFFQPLRLERFFFRSGNIEHPEDKLFNTSVEVLPFDNPQSDKEALQEGRTATLRYPRSPDGYLQIGSFYKGVAEGEVDPAFGPLEALRLSIQTDSPVWVILSEIFLKKAD”, the “soluble on expression in E. coli” value is recorded as “soluble”. “MAHHHHHHMKNALEQLDRHPLVNFQMDVSPLYSALKNIMQEQIQQAQLQEKISQRLTNLEAEVRSVGVRQKEFEDSLDALTPDAKLQTQQTLKELSTNIKNLTSDMKKVRYDVGEAMRTAVDAKRGIHDLESELLSIRQQQRDFSDLHQEVMREHLKFTAAVKDIRWKIEEQEKLIQEFSQVKPQNTSEVDESKLHGMLSALCERTDQNFRSVEESSFAVDAELTRLRADMKFVQNEVRMLRSELHRGGNHLRRDVGCRRQSPHGGSQGADKSALRNEEHLNGYESASTQGAL”: the “soluble on expression in E. coli” value is “not soluble”. On to “KQQKDGSWLMDALIPLNELKYKLGLTTIEGEESEGFQTLNGFLTWWLGRLPHAGELVDYEGWQFEVLNVKHHRIVQVKVSRETESETTTDTNDGDANP”, for which the “soluble on expression in E. coli” value is on record as “not soluble”. The same measure for “MFKQFIEDAKSIAERDPAATSVLEVIFLYSGFHAVCLHRIAHWFYKRNMRFIARFISQLNRFLTGVEIHPGAKIGKGLFIDHGMGVVIGETAEVGDNCTIYHNVTLGGTGKDKGKRHPTIGNNVLISTGAKVLGPFKVGDNSRIGANAVVLNEVEPNTTVVGVPGRAVKRGNQKIVPSIELDQIHIPDPVAQELCRIKQRLESLEKELMEMRRASQGSNVQEPVPQEKSCEEECKLEMGKEIADNETL”: “not soluble”; for “MSLSDAFLSSIKNRRTIYALDKQLPVSQEKIVELVKEAVSHSPSAFNSQSSRVVVLFGAEHEQFWNIAKDELKKIVPADAFAATETKLNSFAAGAGTVLFFEDQTVVRQLQEQFALYADNFPVWSEQASGMAQFAVWTALAEHKVGASLQHYNPLVDAQTHKTWNLPESWKLRAQMPFGAIAAPAGEKAFIAESERFKVFGNEGGSHHHHHH”: “soluble”. Turning to “MAHHHHHHMQSSISQEKLQLMQKNFNLVDLNKDGKIAAEEFKTLLRLLGQTKTEKEMDEMVDKHFEDAPIGEEQQQDAAEAADKGGANEGTPSTAKQLGGQ”, the “soluble on expression in E. coli” value is reported as “soluble”. Regarding “MDTNWLYVLLQKSTADPLERLKLGNVILNEVSQRKVSPHPKLVNDFLDVMSGWLTGSNFKVSTIGLEILDAALRTSPDVLASYYFDRCSVLIERMGDAKVQVREMAINLCLQLAYLENSSPVMLLDRLCVPGTGFQHKQWLVKVGSLNILREFLSSSFALVIQQAITLIPQLCRLTNDPNSEVRDVSTQCLIDLMVYGGKPIVAKIAATRLINEQKMATLLQRYQTTVATRGDLPPKHTITMETTPAQPSRNSLLRRSLRSPAKIIHPSASTTSFTSSARLSTPPRPTTTAAQSLSLAPQTPSPLSLPSPSGGQMSRSRDLTRSSLRAPAGISISRYRSSSCAPAAQCAITLDDFKKSFTAVPKTTIYSNHDIREKLELANLVLRNANEDWSKRANQLKLIRSIIINCDENIDRSLLISIINELADALEFSIRDLRSQIVREAAVTCSFLFETFGMEVKNVAECVLPAALAQVAVSTKVIASSAATLTVFIVQKIQTRQIFTTLSELSSSKAKEQRRQLAVVLETLIASWDLKSKQPILKQIAQLVQNAICDADGETRVAGRKAFAKLEQLHGTTADLIFRELDPAKQKMLRDGVSSSSSSLNSDRDNNNQKQQPNQQNISQKFLSQRSASAVDKSIQLSVKPQTTAIPSRPTAMPMNNRLPKSSTSTSFSAVRSSGYGQNQSTTPNRAKTPSDGFAGSSPHYTNGNNNNKSSSSSPSTSTHQTPIQRVASNLGSSSFVASLTQEQANCLQNAMNTAKDEMSKNNEDDEFLLDEIRKTPPKEVPRSYNNSPFKPSNLDSSVHRSYNNNSPFRPSSGSVGSGSNGSVQSIEHILKACTSSSLNEKRDAIVNLNQVITDPNLCQLECKNIGDTLSRLLAEGNNTLIISILDTISIFIKFQYKKLDNWLKLALGKLFAKMGADALPNVKSALSSTQKMFLTTFDPTFQLKAVCDFMCDPVHLLSPKSRLALLEYICLLFEEIWPEDPRCLERQTHLDTPYTRAAIRKMFAWMFDPRIGAILMPACERLVCALFALNAADFTMIFGELPSECRDWAYRILQLNGQQNNQKPIEKEKERFISNNNYKPCPLDNEEIEKPIMKTTYSTYESTRKEYSQTERIATENQYSTPPPPDYRTSTAHLAKNHVDQAAYIRNQLDAIRDFEKADKLNEAMANLHGMMCEGSFTLWNQFFDELLDSIYQILSTFSQSIRKKLALRILQKMCTAQATKLFDSTEIAISKVLQCACTSDDNTMGVAAEDCLRILASHLPLTRVVLISRRILSQDDDDQRGVLILKMLTRMFQDIDIEELHLIVNDVAPCFVTAYESMSSTVRKCAVFGLVALVQRVGMQRMEPHLRTLNASKLNLIDLYVGRAKSSESGASSN”, the “soluble on expression in E. coli” value was “not soluble”.

Take “MSLVEDVKGVGFKTADKIASSLGIEADSPNRFRAALMHEVNTHSQSTGDTYIEAKNLLEMTIDLLEEARNVEVNPSAVAEEINGLIVDGKVQQEGTKIFENSLYFAEDGIRKSLTALTNRSGKDFADEKLLTVLAEVERDLEITYDDLQKQAIIGAMNQQFFILTGGPGTGKTTIINGFIETYARLHQLDLDPDHYNDDVFPILLAAPTGRASRRMNELTGLPAATIHRHLGLGQDEAEDALGNELSGALLIVDEFSMVDTWLANKLFQAIPGSMKVLLVGDADQLPSVGPGQIFADLLKIPEIPSVKLDKIFRQGDDSTITDLAHHIKDGQLPSDFTAKKPDRSYFEVSANFVPQMVEQIASAWQKRGNNPFELQILAPMYKGMAGINAMNVLLQNLFNPLNDRLEFALGDMKFREGDKVLHLVNDAEANVFNGDLGQIVELIAAKYTDSKQDELVMDFDGQELTYPRAEWYKITLAYAMSIHKSQGSEFSTVIVPMVSSYSRMLERNLLYTAITRAKQSLILLGEERAFAQAVAREGANRKTYLIERFMGENEGHHHHHH”: the “soluble on expression in E. coli” value is “soluble”. In the case of “MKKALPNTKVTVKLRRSNYKEEWYLIIESYPVYKRGSKRASRVVESINRTISTPIWDKSSIARILPDGTFNYKPKRDLNGIIQCRSTIDQEACIYADNVRKLRQHEYDSAILYTDKENEIAAQNERSEQDFIKYFNRIISTRHPNSSDSIIVNWRRVGELLKMYSQGQPIPFKAISVKLLEDIKMFLLRAPMGGNKKGTISQNTASTYFSILKAGLKQAFIDEYLTVDISAKVKGITNIEKPRVALTMNEVQMLVDTPCKDDVLKRAFLFSILTGLRHSDIQTLKWKQIQQTSKGTWQAVVIQQKTKRPDYKPVIQQALQLCGIRPDDDEALVFEGLTDASWISRPLKVWIEASGIKKHITF” it was “not soluble”.

Take “MEKLLQWSIANSQGDKEAMARAGQPDPKLLQQLFGGGGPDDPTLMKESMAVIMNPEVDLETKLVAFDNFEMLIENLDNANNIENLKLWEPLLDVLVQTKDEELRAAALSIIGTAVQNNLDSQNNFMKYDNGLRSLIEIASDKTKPLDVRTKAFYALSNLIRNHKDISEKFFKLNGLDCIAPVLSDNTAKPKLKMRAIALLTAYLSSVKIDENIISVLRKDGVIESTIECLSDESNLNIIDRVLSFLSHLISSGIKFNEQELHKLNEGYKHIEPLKDRLNEDDYLAVKYVL”: the “soluble on expression in E. coli” value was “soluble”. Turning to “MGSDKIHHHHHHMSGIINNREYRQKVLKEIILELHNGKSVDEVRKRFQELIKGVSTKEISEMEAQLIKEGMKVEEIQRLCDVHAAVFKGSIDQIHHPEKEEGHPVSVLKKENEAVKNYIQSHLTPNLEEIKKSDSHSTRLKLMENISMLFDLDKHYSRKENLIFPYLEKYGITAPPKVMWGVDDEIREALKECKEVINSANKTPNEITEKVESTLKRIEEMIFKEESILLPMCIDTFSEDEWLDIESESDEIGYCLISPSEKWKPKRENVEEKEKSKLANENSEGYIKFDTGILRVNELSAILDTLPLDITFVDKDGTVKYFSGGSERIFARTRAVIGRKVQNCHPPASVHIVEKVVEDLKSGKKDHEDFWLHMGELYVFIRYYAVKDNKGEFIGVLEVTQNIKEIQEITGEKRLIE”, the “soluble on expression in E. coli” value is “not soluble”. The same measure for “VRRKVRRLTLAVSALVALFPAVAGCSDSGDNKPGATIPSTPANAEGRHGPFFPQCGGVSDQTVTELTRVTGLVNTAKNSVGCQWLAGGGILGPHFSFSWYRGSPIGRERKTEELSRASVEDINIDGHSGFIAIGNEPSLGDSLCEVGIQFSDDFIEWSVSFSQKPFPLPCDIAKELTRQSIANSK”: “not soluble”; for “MLSNQLHFAKPTARTPLVVLVHGLLGSGADWQPVLSHLARTQCAALTLDLPGHGTNPERHCDNFAEAVEMIEQTVQAHVTSEVPVILVGYSLGGRLIMHGLAQGAFSRLNLRGAIIEGGHFGLQENEEKAARWQHDQQWAQRFSQQPIEHVLSDWYQQAVFSSLNHEQRQTLIAQRSANLGSSVAHMLLATSLAKQPYLLPALQALKLPIHYVCGEQDSKFQQLAESSGLSYSQVAQAGHNVHHEQPQAFAKIVQAMIHSIID”: “soluble”.

Take “MGLADDAPLGYLLYRVGAVLRPEVSAALSPLGLTLPEFVCLRMLSQSPGLSSAELARHASVTPQAMNTVLRKLEDAGAVARPASVSSGRSLPATLTARGRALAKRAEAVVRAADARVLARLTAPQQREFKRMLEKLGSD”: the “soluble on expression in E. coli” value is recorded as “not soluble”. In the case of “MGSDKIHHHHHHMQLPSLQSATLIRRYKRFLADVQLPSGDITTLHCANTGAMIGCGSQGDTLWYSTSDSATRKYPSSWELTQLANGHLVCINTHRSNQLTFDALQKKQIIELAMYDKIYPEVKYGEENSRIDFLLKGKDLPDCYVEVKSITYVDNDKKLGMFPDAVTTRGQKHLRELISMKKQGHRAVIFFCGLHDGFDHFQIAKHIDARYDELLHQALKEGVEAYAYAAEFEKTQGIPTALNLTKVAPFKAG” it was “not soluble”; in that of “MEKEGFARLFHNFDNVIEPKLCSTSGSVPSYLKGTMLRNGPGMFEIGDTKYQHWFDGMGFIQRYHFEDGKMYYSARYLESENYKKNMEAQRIVTGSFGTASFPDPCKSIFSRFFSSFVQSEGIHDNANVAFAPVGDGLYACTETPNMHRVDLDSLDTLEPVDFSKYVALHTCTAHQLFDENGDVYNIGSRFGPDAAHVFTVTKNPKNLQSDSDRSWEHTTKIGEIRCSETFYPTYMHSFGMSENYLIMFESPIRIDIKKFIMKRFITTTFRDCMKWHADKDVKIFILNKKTGEQVPLKLKMAPFFTFHHANTFERDGCLVVDYCRIEQAGNFDALLIENMKTGNFQNDALFLPYLTRVIIPLSIPDGAQPGDDLLKPLGWAKGCSAIFQDDGKIRLKEKRVCDISMEFPRYHWEKINMKPYNYVYGSSVLGAQKSETLPGIVKADLENGDHKVWRRENDKQICGEPIFVPNPEGVREDDGILIVPVMTISDGQRPFVLILEAKNLTEIARYTIPEARIPLGFHAFYQGRT”, “not soluble”. In the case of “MLFIIKYYEPKNLYEHILFILKHLCRSKSMILNPQKLSVDFGNGITATEPIIPRRYTLTHSDITAKLFLNIGLTYAYNKMTTMRDEVLGEWVKKSQDYSYQVFLHVDGRLGPKTTAIRNKIFRRELPLALEAIRYGDKRFFNAHPYLDNAPITVFFISTNPNFNKIENWGTFSDYNIESYYRNYKNVYLLDRKVGDVTGDDIPDTVSLYGEKEAPSEIFADDITVIITDGSTGNTTTITPEFNSGYNPTIFLGDFTKNRVYDIKISIDSGGSGGYGFFYIYSFMENTFREIFNFDAYNKEYKYKVDYDDLYKVNVGAITLNKLFILDISYKGYDVLSQYYYENGKLIKPVDGDVLALGALVPIVSNELLDFYNLLAFQRIIGTYNADTLGYVQNLLSWDGKNFTPSSTFVNISGSSLISPYLEHHHHHH” it was “not soluble”; in that of “MDNARIDLRSKYYVKPKADHPWLTRRTQSHQQVKPPKLPKKKPDPDKKD”, “not soluble”.
